Data taken from patent US11278600B2, “Human alpha-galactosidase variants” (Codexis, Inc., priority 2014, dated 2022).
Where a chain is given by its changes, count along the chain named.

B1: 418 (protein)
chain: LDNGLARTPTMGWLHWERFMCNLDCQEEPDSCISEKLFMEMAERMVSEGWKDAGYEYLCIDDCWMAPQRDSEGRLQADPQRFPHGIRQLANYVHSKGLKLGIYADVGNKTCAGFPGSFGYYDIDAQTFADWGVDLLKFDGCYCDSLENLADGYKHMSLALERTGRSIVYSCEWPLYMWPFQKPNYTEIRQYCNHWRNFADIDDSWKSIKSILDWTSRNQERIVDVAGPGGWNDPDMLVIGNFGLSWDQQVTQMALWAIMAAPLFMSNDLRHISPQAKALLQDKDVIAINQDPLGKQGYQLRKGDNFEVWERPLSGDAWAVAIINRQEIGGPRSYTIPVASLGKGVACNPACFITQLLPVKRQLGFYNWTSRLKSHINPTGTVLLQLENTMQMSLKDLL
modifications: Synthetic Polypeptide sequence of Variant No. 418 of mature Human GLA
B2: 420 (protein)
chain: B1 chain with E161N, S166T
modifications: Synthetic Polypeptide sequence of Variant No. 420 of mature Human GLA
B3: 423 (protein)
chain: B1 chain with E161N, R162A
modifications: Synthetic Polypeptide sequence of Variant No. 423 of mature Human GLA
B4: 422 (protein)
chain: B1 chain with L158G, E161N
modifications: Synthetic Polypeptide sequence of Variant No. 422 of mature Human GLA
B5: 421 (protein)
chain: B1 chain with E161N, R162Q
modifications: Synthetic Polypeptide sequence of Variant No. 421 of mature Human GLA
B6: 419 (protein)
chain: B1 chain with E161N, S166E
modifications: Synthetic Polypeptide sequence of Variant No. 419 of mature Human GLA

How the values were obtained:
Format in all cases: biochemical
[1] = HTP-analysis of yeast culture supernatants, no challenge (MUGal hydrolysis); conditions: activity of the variant/activity of Rd4BB (SEQ ID NO: 15)
Outline: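 GLA variants expressed in yeast INVSc1, secreted into SD-Ura broth over 66-84 h at 30° C; clarified supernatants tested without challenge. Supernatant mixed with McIlvaine buffer pH 4.8 and 2 mM MUGal (citrate/KCl, pH 4.6), 37° C for 30-180 min, carbonate-quenched, fluorescence Ex 355/Em 448 nm.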

[2] = HTP-analysis of supernatants pretreated with acid (MUGal hydrolysis); conditions: activity of the variant/activity of Rd4BB (SEQ ID NO: 15); challenge at pH 3.7
Outline: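 Fluorescence of MUGal hydrolysis (Ex. 355 nm, Em. 448 nm) is read after sodium carbonate quench. The enzyme source is INVSc1 yeast culture supernatant, first exposed to pH 3.3-4.3 McIlvaine buffer at 37° C. for 1-3 h, then reacted at pH 4.8 for 30-180 minutes.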

[3] = HTP-analysis of supernatants pretreated with base (MUGal hydrolysis); conditions: activity of the variant/activity of Rd4BB (SEQ ID NO: 15); challenge at pH 9.65
Outline: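 Fluorescence of released 4-MU (Ex 355 nm, Em 448 nm) after carbonate quench reports MUGal hydrolysis by GLA variants secreted from INVSc1 yeast. Before the acidic (pH 4.3-4.8) 30-180 min reaction at 37° C, supernatants had been pre-incubated at pH 7.0-9.7 for 1-18 h at 37° C.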

Molecule | Relative Activity of GLA Variants After No Challenge (NC) [1] | Relative Activity of GLA Variants After Challenge at pH 3.7 [2] | Relative Activity of GLA Variants After Challenge at pH 9.65 [3]
B1 | + (0.5 to 1.5 relative activity over Rd4BB (SEQ ID NO: 15)) | + (0.5 to 1.5 relative activity over Rd4BB (SEQ ID NO: 15)) | − (<0.5 relative activity over Rd4BB (SEQ ID NO: 15))
B2 | + (0.5 to 1.5 relative activity over Rd4BB (SEQ ID NO: 15)) | ++ (>1.5 to 2.5 relative activity over Rd4BB (SEQ ID NO: 15)) | − (<0.5 relative activity over Rd4BB (SEQ ID NO: 15))
B3 | + (0.5 to 1.5 relative activity over Rd4BB (SEQ ID NO: 15)) | + (0.5 to 1.5 relative activity over Rd4BB (SEQ ID NO: 15)) | + (0.5 to 1.5 relative activity over Rd4BB (SEQ ID NO: 15))
B4 | + (0.5 to 1.5 relative activity over Rd4BB (SEQ ID NO: 15)) | + (0.5 to 1.5 relative activity over Rd4BB (SEQ ID NO: 15)) | − (<0.5 relative activity over Rd4BB (SEQ ID NO: 15))
B5 | + (0.5 to 1.5 relative activity over Rd4BB (SEQ ID NO: 15)) | + (0.5 to 1.5 relative activity over Rd4BB (SEQ ID NO: 15)) | − (<0.5 relative activity over Rd4BB (SEQ ID NO: 15))
B6 | + (0.5 to 1.5 relative activity over Rd4BB (SEQ ID NO: 15)) | + (0.5 to 1.5 relative activity over Rd4BB (SEQ ID NO: 15)) | + (0.5 to 1.5 relative activity over Rd4BB (SEQ ID NO: 15))
